Data taken from FireProtDB (doi:10.1016/0003-9861(92)90047-z).

B1: Tryptophan synthase alpha chain, P0A877 (parent)
chain: MERYESLFAQLKERKEGAFVPFVTLGDPGIEQSLKIIDTLIEAGADALELGIPFSDPLADGPTIQNATLRAFAAGVTPAQCFEMLALIRQKHPTIPIGLLMYANLVFNKGIDEFYAQCEKVGVDSVLVADVPVEESAPFRQAALRHNVAPIFICPPNADDDLLRQIASYGRGYTYLLSRAGVTGAENRAALPLNHLVAKLKEYNAAPPLQGFGISAPDQVKAAIDAGAAGAISGSAIVKIIEQHINEPEKMLAALKVFVQPMKAATRS

Variants of: B1
Details: Escherichia coli (strain K12); pH 7.2; Thermal; DSC; Sodium phosphate 1 mM; reversible: yes; structure 1WQ5; whole UniProt chain shown

Variant	Tm	change of melting temperature, mutant - wild type (higher = more stable)
P62Q	58.9 °C	-0.6 °C
S33L	51.9 °C	-7.6 °C
T63K	56.2 °C	-3.3 °C
D60G	56.9 °C	-2.6 °C
P53T	55.2 °C	-4.3 °C
P53H	56.2 °C	-3.3 °C
P21S	55.2 °C	-4.3 °C
G51D	55 °C	-4.5 °C
E49G	57.7 °C	-1.8 °C
Y115C	57.2 °C	-2.3 °C
A67V	56.8 °C	-2.7 °C
T24M	61.8 °C	2.3 °C
M101V	67.1 °C	7.6 °C
M101I	63.2 °C	3.7 °C
M101T	67.1 °C	7.6 °C
F114L	56.2 °C	-3.3 °C
Y102C	60.9 °C	1.4 °C
Y102H	60.3 °C	0.8 °C
D112G	54.4 °C	-5.1 °C
D112N	56.4 °C	-3.1 °C
D56G	57.5 °C	-2 °C
F22S	60.3 °C	0.8 °C
S6P	54.3 °C	-5.2 °C
P28L	54.9 °C	-4.6 °C
P78S	57.9 °C	-1.6 °C
P78L	61.4 °C	1.9 °C
Q65R	58.9 °C	-0.6 °C
